Reference: the RNAGym collection of RNA variant scans (doi:10.1073/pnas.2313332121)
Variants at the floor of the assay were thinned out.

B1: TPR 5TU (parent)
chain: GGAUCUUCUCGAUCUAACAAAAAAGACAAAUCUGCCACAAAGCUUGAGAGCAUCUUCGGAUGCAGAGGCGGCAGCCUUCGGUGGCGCGAUAGCGCCAACGUUCUCAACUAUGACACGCAAAACGCGUGCUCCGUUGAAUGGAGUUUAUCAUG

Variants of: B1
Test: polymerase ribozyme fitness, log enrichment relative to wild type (log ratio); higher = more active; in vitro selection for triplet polymerase activity
How it was run: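 For each subunit of a heterodimeric triplet polymerase ribozyme, a mutant library was built by PCR and transcribed, then taken through a single in vitro selection round in triplicate. Selection involved annealing to a biotinylated primer, the partner subunit and triplets, incubation frozen at −7 °C, gel excision of extended constructs, capture on streptavidin beads and RT-PCR. Genotypes were retained after Illumina sequencing of inputs and outputs only with ≥10 input reads and ≥1 read in each output. Fitness is defined as the logarithm of a genotype's enrichment relative to wild-type enrichment, using inverse-variance-weighted averages across replicates, with the logarithm taken to base 2.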

Variant	polymerase ribozyme fitness (log ratio)
GGAUCUUCUCGAUCUAAUAAAAAAGACAAAUCUGCCAGAGAGCUUGAGAGCAUCUUCGGAAGCAGAGGCGGCAGCCUUCGCUGGCGCGAUAGCGCAAACGUUCUCAACUAUGACACGCAAAACGCGUGCUCCGUUGAAUGGAGUUCAUCAUG [C18U C38G A40G U61A G81C C96A U146C]	≤ -4.2
GGAUCUUCUCGAUCUAAUAAAAAAGACAAAUCUGCCACACAGCUUGAGAGCAUCUUAGGAUGCAGAGGCGGCAGCCUUCGGUGGCGCGAUAGCGCCAACGUUCUCAACUAUGACACGCAAAACGCUUGCUCCGUUGAAUGGAGUUUAUCAUG [C18U A40C C57A G126U]	-0.291
GGAUCUUCUCGAUCUAAUAAAGAAGACAAAUCUGCCACAAAGCUUGAGCGCAUCUUCGGAUGCAGAGGCGGCAGCCUUCGGUGGCACGAUAGCGCCAACGUUCUCAACUAUGACACGCAAAACGCGUGCUGCGUUGAAUGGAGUUUAUCAUG [C18U A22G A49C G86A C131G]	-4.14
GGAUCUUCUCGAUCUAAUAAAAAAGACAUAUCUGCCACAAAGCUUGAGAGCCUCUUCGGAUGCAGAGGCGGCAGCCUUCGGUGGCGCGAUAGAGCCAACGUUCUCAACUAUGACACGCAAAACGGGUGCUCCGUUGAAUGGAGAUUUUCAUG [C18U A29U A52C C93A C125G U144A A147U]	≤ -4.2
GGAUCUUCUCGAUCUAAUAAAAAAGACAAUUCUGCCACAAAGCUUGAGAGCAUCUUCGGAUGCAUAGGCGGCAGCCUUCGGUGUCGCGAUAGCGCCAACGUUCUUAACUAUGACACGCAAAACGCGUGCUCCGUUGAAUGGAGUUUAUCAUG [C18U A30U G65U G84U C105U]	≤ -4.2
GGAUCUUCUCGAUCUAAUAAAAAAGACAAAUCUGCCACAAGGCUUGAGAGCAUCUUCGGAUGCAGAGGCGGCAGCCUUCGGUGGAGCGAUAGCGCCAACGUUCUCAACUAUGACACGCAAAACGCGUGCUCCGAUGAAUGGAGUUUAUCAUG [C18U A41G C85A U134A]	-3.02
GGAUCUUCUCGAUCUAAUAAAAAAGACAAAUCUGCCACAAAGCUUGAGAGCAUCUUCGGGUGCAGAGGCGGCAGCUUUCGGUGGCGCGAUAGCGCCAACGUUGUCAACUAUUACACGCAAAACGCGUGCUCCGUUGAAUGGAGUUUAUCAUG [C18U A60G C76U C103G G112U]	≤ -4.2
GGAUCUUCUCGAUCUAAUAAAAAAGACAAAUCUGCCACACAGCUUGAGAGCAUCUUCGGAUGCAGAGGCGGCAGCCUUCGGUGGCGCGAUAGAGCCAACGUUCUCAACUAUGACACGCAAAACGCGUGCUCCGUUGAAUGGAGUUUAUCAUG [C18U A40C C93A]	-2.24
GGAUCUUCUCGAUCUAAUAAAAAAGACAAAUCUGCCGCAAAGCUUGAGAGCAUCUACGGAUGCAGAGGCGGCAGCCUUCGGUGGCGGGAUAGCGCCAACGUUUUCAACUAUGACACGCAAAACGCGUGCUCCGUUGAAUGGAGUUUAUCAUG [C18U A37G U56A C87G C103U]	≤ -4.2
GGAUCUUCUCGAUCUAAUAAAAUAGACAAAUCUGCCACAAAGCUUGAGAGCAUCUUCGGAUGCAGAGGCGGCAGCCUUCGGUGGCGCGAUUGCGGCAACGUUCCCAACUAUGACACGAAAAACGCGUGCUCCGUUGAAUGGAGUUUUUCAUG [C18U A23U A91U C95G U104C C118A A147U]	≤ -4.2
GGAUCUUCUCGAUCUAAUAAAAAAGACAAAUCUGCCACAAAGCUUGAGAGCAUCUUCGGAUGCAGAGGCGGCAGCCUUCGGUGGCGCGAUAGCGCCGACGUUCUCAACUAUGACACGCAAAACGCGUGCUGCGUUGAAUGGAGUUUAUCAUG [C18U A97G C131G]	-3.22
GGAUCUUCUCGAUCUAAUAAAAAAGACAAAUCUGCCACGAAGCUUGAGAGCACCUUCGGAUGCAGAGGCGGCAGCCUUCGGUGGCGCGAUAGCGCCAACGUUCUCAACUAUGACACGCAAAACGCGUGCUCCGUUGAAUGGAGUUUAUCAUG [C18U A39G U53C]	-3.19
GGAUCUUCUCGAUCUAAUAAAAAAGACAUUUCUGCCACAAAGCUUGAGAGCAUCUUCGGAUGCAGAGGCCGCAGCCUUCGGUGGCGCGAUAGCGCCAACGUUCUCAACUAUGACACGCAAAACGCGUGCUCCGUUGAAUGGAGUUUAUGAUG [C18U A29U A30U G70C C149G]	≤ -4.2
GGAUCUUCUCGAUCUAAUAAAAAAGACAAAUCUGCAACAAAGCUUGAGAGCAUCUUCGGAUGCAGAGGCGGCAGCCUUCGGUGGCGCGAUAGCGCCAACGUUCUCAACUAUGACACGCAAAACGCGUGCUCCGUUGAAUGGAGUUUAUCAUG [C18U C36A]	-4.01
GGAUCUUCUCGAUCUAAUAAAAAAGACAAAUCUGCCCCAAAGCUUGAGAGCAUCUUCGGAUGCAGAGGCGGCACCCUUCGCUGGCGCGAUAGCGCCAACGUUCUCAACUAUGACACGCAAAACGCGUGCUCCGUUGAAUGGAGUUUAUCAUG [C18U A37C G74C G81C]	≤ -4.2
GGAUCUUCUCGAUCUAAUAAAAAAGACAAAUCUGCCUCAAAGCUUGAGAGCAUCAUCGGAUGCAGAGGCGGCAGCCUUCGGUGGCACGAUAGCGCCAACGUUCUCAACUAUGACACGCAAAACGCGUGCUCCGUUGAAUGGAGUUUAUCAUG [C18U A37U U55A G86A]	-3.67
GGAUCUUCUCGAUCUAAUAAAAAAGACAAAUCUGCCCCAAAGCUUGAGAGCAUCUUCGGAUGCAGAGACGGCAGCCUUCGGUGGCGCGAUAGCGCCAACGUUCUCAUCUAUGACACGCAAAACGAGUGCUCCGUUGAAUCGAGUUUAUCAUG [C18U A37C G68A A107U C125A G140C]	≤ -4.2
GGAUCUUCUCGAUCUAAUAAAAAAGACAAAUCUGCCACAAAGCUUGAGAGCAUCUUCGGAUGCAGAGGCGGCAGCCUUCGGUGGCGCGAUGGCGCCAACGUUCUCAACUAUGACACGCAAAACGCGUGCUCCGUUGAAUGGAGUUUAUCAUG [C18U A91G]	-3.63
GGAUCUUCUCGAUCUAAUAAAAAAGACAAAUCUGCCACAAAGCUUGAGAGCUUCUUCGGAUGCAGAGGCGGCAGCCUUCGGUGGCGCGAUAGCGCCAACGUUCUCAACUAUGACACGCAAAACGCGUGCUCCGUUGAAUGGAGUUUAUCAUG [C18U A52U]	-1.92
